From patent publication US20100209956

B1: tissue-type plasminogen activator (t-PA) (protein)
chain: SYQVICRDEKTQMIYQQHQSWLRPVLRSNRVEYCWCNSGRAQCHSVPVKSCSEPRCFNGGTCQQALYFSDFVCQCPEGFAGKCCEIDTRATCYEDQGISYRGTWSTAESGAECTNWNSSALAQKPYSGRRPDAIRLGLGNHNYCRNPDRDSKPWCYVFKAGKYSSEFCSTPACSEGNSDCYFGNGSAYRGTHSLTESGASCLPWNSMILIGKVYTAQNPSAQALGLGKHNYCRNPDGDAKPWCHVLKNRRLTWEYCDVPSCSTCGLRQYSQPQFRIKGGLFADIASHPWQAAIFAKHRRSPGERFLCGGILISSCWILSAAHCFQERFPPHHLTVILGRTYRVVPGEEEQKFEVEKYIVHKEFDDDTYDNDIALLQLKSDSSRCAQESSVVRTVCLPPADLQLPDWTECELSGYGKHEALSPFYSERLKEAHVRLYPSSRCTSQHLLNRTVTDNMLCAGDTRSGGPQANLHDACQGDSGGPLVCLNDGRMTLVGIISWGLGCGQKDVPGVYTKVTNYLDWIRDNMRP
B2: soluble form of hepsin encompassing the entire extracellular domain (Arg45-Leu417) and a C-terminal His8 tag (protein)
chain 1: RSDQEPLYPVQVSSADARLMVFDKTEGTWRLLCSSRSNARVAGLSCEEMGFLRALTHSELDVRTAGANGTSGFFCVDEGRLPHTQRLLEVISVCDCPRGRFLAAICQDCGRRKLPVDR
chain 2: not shown

Key:
[1] = molecular target: T1, Lys-plasminogen, P00747
T1 chain: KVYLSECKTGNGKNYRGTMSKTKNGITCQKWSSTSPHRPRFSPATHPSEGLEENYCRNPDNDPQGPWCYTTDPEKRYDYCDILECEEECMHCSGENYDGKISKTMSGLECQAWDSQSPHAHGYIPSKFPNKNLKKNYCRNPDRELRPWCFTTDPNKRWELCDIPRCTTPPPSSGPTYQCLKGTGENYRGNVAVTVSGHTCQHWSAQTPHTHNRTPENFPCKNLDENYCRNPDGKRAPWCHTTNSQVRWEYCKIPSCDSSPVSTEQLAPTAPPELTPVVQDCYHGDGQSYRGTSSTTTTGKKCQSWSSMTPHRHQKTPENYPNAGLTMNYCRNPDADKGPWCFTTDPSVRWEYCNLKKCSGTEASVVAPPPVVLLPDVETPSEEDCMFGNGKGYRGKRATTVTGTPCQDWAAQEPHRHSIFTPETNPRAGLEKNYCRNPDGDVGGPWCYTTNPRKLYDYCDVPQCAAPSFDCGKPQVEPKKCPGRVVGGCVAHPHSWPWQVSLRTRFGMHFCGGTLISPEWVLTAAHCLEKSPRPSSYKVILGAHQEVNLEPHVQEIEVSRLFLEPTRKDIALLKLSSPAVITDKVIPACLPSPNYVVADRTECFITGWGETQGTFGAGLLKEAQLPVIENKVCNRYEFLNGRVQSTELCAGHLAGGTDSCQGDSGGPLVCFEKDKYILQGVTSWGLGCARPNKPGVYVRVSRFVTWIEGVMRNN

[2] = molecular target: pro-HGF (single-chain hepatocyte growth factor), P14210
Sequence of pro-HGF (single-chain hepatocyte growth factor), P14210 (P14210 32-728): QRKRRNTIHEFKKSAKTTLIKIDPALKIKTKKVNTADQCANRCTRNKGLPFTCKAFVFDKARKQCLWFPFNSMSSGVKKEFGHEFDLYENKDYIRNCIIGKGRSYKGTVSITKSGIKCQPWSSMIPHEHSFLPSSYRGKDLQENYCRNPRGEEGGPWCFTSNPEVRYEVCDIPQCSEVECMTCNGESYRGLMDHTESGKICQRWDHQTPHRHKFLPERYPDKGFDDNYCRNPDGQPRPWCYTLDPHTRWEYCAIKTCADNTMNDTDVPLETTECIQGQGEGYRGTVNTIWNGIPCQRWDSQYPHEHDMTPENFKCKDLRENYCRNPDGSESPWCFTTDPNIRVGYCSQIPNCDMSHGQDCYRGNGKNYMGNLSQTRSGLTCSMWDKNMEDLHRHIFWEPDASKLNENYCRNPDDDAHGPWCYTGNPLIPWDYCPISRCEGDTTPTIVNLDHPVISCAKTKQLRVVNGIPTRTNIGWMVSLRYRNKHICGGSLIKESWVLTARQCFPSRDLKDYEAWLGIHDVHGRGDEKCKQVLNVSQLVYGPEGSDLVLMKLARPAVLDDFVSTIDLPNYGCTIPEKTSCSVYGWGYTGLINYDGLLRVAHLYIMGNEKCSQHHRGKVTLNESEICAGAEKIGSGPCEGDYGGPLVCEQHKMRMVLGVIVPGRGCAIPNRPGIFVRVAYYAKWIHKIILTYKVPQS

Protein	percent of plasminogen zymogen cleaved after 0.5 h (40 nM t-PA, SDS-PAGE) [1]	enzyme concentration achieving complete conversion of 125I-labelled pro-HGF into two-chain HGF (4 h, 37° C., SDS-PAGE) [2]
B1	t-PA efficiently processed plasminogen with about 50% of zymogen already cleaved after 0.5 h	
B2		both enzymes achieving complete conversion of pro-HGF at a concentration of 4-13 nM
VQLSPDLLATLPEPASPGRQACGRRHKKRTFLRPR [HGFA (hepatocyte growth factor activator) comprising residues Val373-Arg407]		both enzymes achieving complete conversion of pro-HGF at a concentration of 4-13 nM
